The record followed here is IntAct's records for PubMed 29051512.

Sequences and labels used below:
B1: CMRF35-like molecule 7 (Homo sapiens), A8K4G0 (parent)
chain: MWLPPALLLLSLSGCFSIQGPESVRAPEQGSLTVQCHYKQGWETYIKWWCRGVRWDTCKILIETRGSEQGEKSDRVSIKDNQKDRTFTVTMEGLRRDDADVYWCGIERRGPDLGTQVKVIVDPEGAASTTASSPTNSNMAVFIGSHKRNHYMLLVFVKVPILLILVTAILWLKGSQRVPEEPGEQPIYMNFSEPLTKDMAT
partner: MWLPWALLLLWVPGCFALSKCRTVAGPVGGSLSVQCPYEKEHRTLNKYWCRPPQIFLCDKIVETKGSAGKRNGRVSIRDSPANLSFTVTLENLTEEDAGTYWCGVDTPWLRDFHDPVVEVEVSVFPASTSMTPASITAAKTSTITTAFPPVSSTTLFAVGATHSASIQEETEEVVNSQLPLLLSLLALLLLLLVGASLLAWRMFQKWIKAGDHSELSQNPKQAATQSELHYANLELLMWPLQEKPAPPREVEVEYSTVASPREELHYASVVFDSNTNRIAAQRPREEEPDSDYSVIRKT
B2: CMRF35-like molecule 7 (Homo sapiens), A8K4G0 (parent)
chain: B1 chain
partner: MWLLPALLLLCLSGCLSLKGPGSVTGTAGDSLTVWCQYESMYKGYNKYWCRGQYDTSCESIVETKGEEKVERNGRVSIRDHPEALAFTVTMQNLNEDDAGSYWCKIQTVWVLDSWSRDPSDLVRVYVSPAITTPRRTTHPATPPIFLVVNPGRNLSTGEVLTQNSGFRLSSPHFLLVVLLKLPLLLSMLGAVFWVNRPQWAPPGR
B3: CMRF35-like molecule 7 (Homo sapiens), A8K4G0 (parent)
chain: B1 chain
partner: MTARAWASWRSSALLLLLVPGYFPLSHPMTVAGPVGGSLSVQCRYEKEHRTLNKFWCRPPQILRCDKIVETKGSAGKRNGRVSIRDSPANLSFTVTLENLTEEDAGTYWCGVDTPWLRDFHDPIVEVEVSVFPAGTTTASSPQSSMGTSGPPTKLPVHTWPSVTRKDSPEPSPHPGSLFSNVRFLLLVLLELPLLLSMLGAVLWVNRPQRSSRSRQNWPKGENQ
B4: CMRF35-like molecule 7 (Homo sapiens), A8K4G0 (parent)
chain: B1 chain
partner: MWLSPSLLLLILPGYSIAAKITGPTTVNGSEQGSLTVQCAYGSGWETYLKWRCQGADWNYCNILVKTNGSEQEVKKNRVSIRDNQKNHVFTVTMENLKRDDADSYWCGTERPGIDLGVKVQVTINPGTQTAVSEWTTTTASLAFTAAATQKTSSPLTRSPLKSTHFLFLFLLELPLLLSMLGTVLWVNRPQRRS
B5: CMRF35-like molecule 7 (Homo sapiens), A8K4G0 (parent)
chain: B1 chain
partner: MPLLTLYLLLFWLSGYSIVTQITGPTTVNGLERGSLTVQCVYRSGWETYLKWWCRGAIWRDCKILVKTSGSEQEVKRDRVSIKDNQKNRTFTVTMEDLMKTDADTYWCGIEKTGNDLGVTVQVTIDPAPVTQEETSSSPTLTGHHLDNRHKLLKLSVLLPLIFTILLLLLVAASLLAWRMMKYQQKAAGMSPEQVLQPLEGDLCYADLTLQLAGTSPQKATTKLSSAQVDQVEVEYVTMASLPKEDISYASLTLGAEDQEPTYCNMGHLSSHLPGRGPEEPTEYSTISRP

In one assay the parent is B1. The following applies: with clm8_human CD300A.
In the case of MWLPPALLLLSLSGCFSIQGPESVRAPAGGSLTVQCHYKQGWETYIKWWCRGVRWDTCKILIETRGSEQGEKSDRVSIKDNQKDRTFTVTMEGLRRDDADVYWCGIERRGPDLGTQVKVIVDPEGAASTTASSPTNSNMAVFIGSHKRNHYMLLVFVKVPILLILVTAILWLKGSQRVPEEPGEQPIYMNFSEPLTKDMAT [E28A;Q29G], the “effect of a mutation on the interaction” value is listed as “decreasing interaction strength”.

In the next assay the parent is B2. Conditions: with clm2_human CD300E.
MWLPPALLLLSLSGCFSIQGPESVRAPAGGSLTVQCHYKQGWETYIKWWCRGVRWDTCKILIETRGSEQGEKSDRVSIKDNQKDRTFTVTMEGLRRDDADVYWCGIERRGPDLGTQVKVIVDPEGAASTTASSPTNSNMAVFIGSHKRNHYMLLVFVKVPILLILVTAILWLKGSQRVPEEPGEQPIYMNFSEPLTKDMAT [E28A;Q29G]: the “effect of a mutation on the interaction” value was “decreasing interaction strength”.

The variants in another assay derive from B3. Conditions: with clm6_human CD300C.
Regarding MWLPPALLLLSLSGCFSIQGPESVRAPEQGSLTVQCHYKQGWETYIKWWCRGVRWDTCKILIETRGSEQGEKSDRVSIKDNQKDRTFTVTMEGLGRGDADVYWCGIERRGPDLGTQVKVIVDPEGAASTTASSPTNSNMAVFIGSHKRNHYMLLVFVKVPILLILVTAILWLKGSQRVPEEPGEQPIYMNFSEPLTKDMAT [R95G;D97G], the “effect of a mutation on the interaction” value was “with no effect”.

With MWLPPALLLLSLSGCFSIQGPESVRAPAGGSLTVQCHYKQGWETYIKWWCRGVRWDTCKILIETRGSEQGEKSDRVSIKDNQKDRTFTVTMEGLRRDDADVYWCGIERRGPDLGTQVKVIVDPEGAASTTASSPTNSNMAVFIGSHKRNHYMLLVFVKVPILLILVTAILWLKGSQRVPEEPGEQPIYMNFSEPLTKDMAT [E28A;Q29G], the “effect of a mutation on the interaction” value is recorded as “decreasing interaction strength”.

Variants of B4 are the subject of the next assay. Conditions: with clm5_human CD300LD.
In the case of MWLPPALLLLSLSGCFSIQGPESVRAPAGGSLTVQCHYKQGWETYIKWWCRGVRWDTCKILIETRGSEQGEKSDRVSIKDNQKDRTFTVTMEGLRRDDADVYWCGIERRGPDLGTQVKVIVDPEGAASTTASSPTNSNMAVFIGSHKRNHYMLLVFVKVPILLILVTAILWLKGSQRVPEEPGEQPIYMNFSEPLTKDMAT [E28A;Q29G], the “effect of a mutation on the interaction” value was “decreasing interaction strength”.

In the next assay the parent is B5. Conditions: with clm1_human CD300LF.
Consider MWLPPALLLLSLSGCFSIQGPESVRAPAGGSLTVQCHYKQGWETYIKWWCRGVRWDTCKILIETRGSEQGEKSDRVSIKDNQKDRTFTVTMEGLRRDDADVYWCGIERRGPDLGTQVKVIVDPEGAASTTASSPTNSNMAVFIGSHKRNHYMLLVFVKVPILLILVTAILWLKGSQRVPEEPGEQPIYMNFSEPLTKDMAT [E28A;Q29G], for which the “effect of a mutation on the interaction” value is “decreasing interaction strength”.
